Earlier results on 1 substance are cited in PMC2749146.

This data set deals with Cys. The data set can be described thus: UV-vis. Conditions: Reduced; the protein unfolds below pH 3, so deprotonation and unfolding overlap.

With DsbA (EcDsbA) (Escherichia coli), the pKa result is reported as “∼3.5”.
